{
  "source": "patent US20220144911A1",
  "about": "(UAB RESEARCH FOUNDATION, published 2022)",
  "binders": {"B1": {"name": "RhIL10R1-FC-SLS (Fc fusion)", "chain": "AHGTELPSPPSVWFEAEFFHHILHWTPIPNQSESTCYEVALLRYGTGRWNSISNCSQALSYDLTAVTLDLYRSNGYWARVRAVDGSRHSNWTVTNTRFSLDEVTLTVGSVKLEIHNGFILGKIQPPRPKMAPANDTYESIFRHFREYEIAIRKVPGNFTFTHKKVKHENFSLLTSGEVGEFCVQVKPSVTSRTNKGMWSKEECVSLTRQYFTVTNVGSGGGGPSVFLFPPKPKDTLMISRTPEVTCVVVDVSQEDPDVKFNWYVNGAEVHHAQTKPRETQYNSTYRVVSVLTVTHQDWLNGKEYTCKVSNKALPAPIQKTISKDKGQPREPQVYTLPPSREELTKNQVSLTCLVKGFYPSDIVVEWESSGQPENTYKTTPPVLDSDGSYFLYSKLTVDKSRWQQGNVFSCSVMHEALHNHYTQKSLSLSGGCGTPGK", "notes": "also called RhIL10R1-SLS; Rh10R1-FC"}},
  "key": {"cellular RhIL10 [1]": {"target": "T1, cellular RhIL10 (rhesus macaque, UniProt P51496 19-178)", "T1 construct": "also called Rhesus IL10", "T1 sequence (P51496 19-178 limits assumed)": "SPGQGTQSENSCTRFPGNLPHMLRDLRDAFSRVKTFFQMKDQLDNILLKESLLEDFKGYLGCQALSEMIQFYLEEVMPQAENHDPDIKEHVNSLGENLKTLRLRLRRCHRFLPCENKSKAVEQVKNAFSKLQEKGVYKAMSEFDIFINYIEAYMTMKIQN", "assay": "SPR, ratio of KD values", "experimental": "(§1) Following the association phase, dissociation was monitored for 720 seconds. The binding parameters were extracted from the sensorgrams by fitting the data to a 1:1 binding model.\n(§2) Surface Plasmon Resonance (SPR): SPR data collection and analysis was performed using a Biacore T-200 (GE healthcare). […] Sensorgrams were fit to appropriate models using Biacore T-200 evaluation software version 1.0."}, "RhCMVIL10": {"target": "RhCMVIL10 (rhesus cytomegalovirus (printed as …))", "sequence (P51496 whole entry)": "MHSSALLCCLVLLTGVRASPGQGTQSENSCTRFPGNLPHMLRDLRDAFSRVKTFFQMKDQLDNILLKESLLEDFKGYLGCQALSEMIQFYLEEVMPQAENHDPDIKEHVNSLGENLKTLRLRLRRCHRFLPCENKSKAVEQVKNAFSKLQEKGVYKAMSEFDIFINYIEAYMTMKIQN"}, "cellular RhIL10 [2]": {"target": "T1, cellular RhIL10", "assay": "SPR (Biacore T-200), RhIL10R1-FC captured by anti-human FC, IL10 as analyte, 1:1 model", "experimental": "as §1, §2"}},
  "data": [
    {"binder": "B1", "values": [
      {"measurement": "fold greater affinity than 1F11", "setting": "cellular RhIL10 [1]", "value": 4.8, "unit": "fold"},
      {"measurement": "Kd", "setting": "RhCMVIL10", "value": 0.0724, "unit": "nM"},
      {"measurement": "koff", "setting": "RhCMVIL10", "value": 0.00017, "unit": "s⁻¹"},
      {"measurement": "kon", "setting": "RhCMVIL10", "value": "2.35e+06", "unit": "M⁻¹ s⁻¹"},
      {"measurement": "Kd", "setting": "cellular RhIL10 [2]", "value": 0.136, "unit": "nM"},
      {"measurement": "koff", "setting": "cellular RhIL10 [2]", "value": 0.000454, "unit": "s⁻¹"},
      {"measurement": "kon", "setting": "cellular RhIL10 [2]", "value": "3.35e+06", "unit": "M⁻¹ s⁻¹"}
    ]}
  ]
}
